From patent US20220064272A1 (TAUC3 BIOLOGICS, published 2022)
Several values for one entry are separate records, joined by “and”; a condition that tells them apart may be missing. Identical values can stand only once. Values belong to the binder of their own block, whether it stands above or below them.

What was measured:
[1] = target: T1, TauC3 (C-terminally truncated tau fragment ending at aspartate 421 of htau40) (human, UniProt P10636 1-738); assay: binding ELISA on coated TauC3, OD650
T1 construct: Generated and purified by Genscript; also called Human TauC3; recombinant TauC3 protein
Summary of the method: (§1)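 Binding ELISA on coated TauC3 antigen, which was made and purified by Genscript. Chimeric or humanized IgG4κ antibodies were expressed in ExpiCHO cells. Binding was read as absorbance at 650 nm. EC50 was derived from the antibody concentration-response.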

[2] = target: T1, TauC3 (C-terminally truncated tau …); assay: Biacore off-rate ranking, TauC3 amine-coupled on CM5, one antibody concentration; one-phase exponential decay fit
Experimental: (§2) To further evaluate the binding data observed on the Octet, an off-rate ranking experiment was performed on the Biacore 200 instrument. Biacore offers greater selectivity than the Octet and facilitated the immobilization of TauC3 onto a CM5 chip via amine coupling which stabilizes the antigen. This produces higher quality data with stable baselines and good reproducible responses. Once TauC3 is immobilized, one concentration (5 nM) of antibody is added, followed by a dissociation and regeneration step (Section 8.20). The off-rates were fitted using a two-phase decay model (FIG. 25B) or a one phase decay fitting only the second off-rate (FIG. 25A). The candidates were then ranked based on the off-rates obtained using the fits and compared. The data agreed with the Octet results (albeit with a different ranking order), highlighting Tau01 HMKM, HMKO, HMKP, HMKN and HMKE as the humanized variants with the slowest off-rates. The lack of binding of FL Tau to chimeric and a humanized candidate was also confirmed by Biacore by loading the antibody onto a Protein G chip and adding 250 nM FL Tau.

[3] = target: T1, TauC3 (C-terminally truncated tau …); assay: SPR (Biacore) kinetics, TauC3 amine-coupled on CM5, antibody as analyte
Description: (§3) To determine the affinity of the binding interactions, a biacore kinetic assay was developed which involved immobilizing TauC3 on a CM5 chip via amine coupling and injecting a concentration series of the respective antibody over it.

[4] = target: T1, TauC3 (C-terminally truncated tau …); assay: Biacore kinetics, TauC3 amine-coupled on CM5, antibody series, 1:1 global fit
Description: as §3

[5] = target: T1, TauC3 (C-terminally truncated tau …); assay: binding ELISA on coated TauC3, OD650; remark: listed apart in the source
Summary of the method: as §1

[6] = target: T1, TauC3 (C-terminally truncated tau …); assay: binding ELISA on coated TauC3, OD650; remark: listed apart in the source
Summary of the method: as §1

[7] = target: T1, TauC3 (C-terminally truncated tau …); assay: binding ELISA on coated TauC3, OD650; right table (HM variants)
Summary of the method: as §1

[8] = target: T1, TauC3 (C-terminally truncated tau …); assay: Biacore off-rate ranking, TauC3 amine-coupled on CM5, one antibody concentration; two-phase decay fit, slow phase; parameters: unit not given here
Experimental: as §2

[9] = target: T1, TauC3 (C-terminally truncated tau …); assay: binding ELISA on coated TauC3, OD650; left table (HC variants)
Summary of the method: as §1

[10] = target: T1, TauC3 (C-terminally truncated tau …); assay: binding ELISA on coated TauC3, OD650; remark: listed apart in the source
Summary of the method: as §1

[11] = target: T2, full length Tau (2N4R, htau40) (human, UniProt P10636 1-758); assay: Biacore, antibody captured on Protein G chip, FL Tau injected [Fig. 26B]
T2 construct: Generated and purified by Genscript; also called FL Tau; FLT
Experimental: as §2

[12] = target: T1, TauC3 (C-terminally truncated tau …); assay: binding ELISA on coated TauC3, OD650; remark: listed apart in the source
Summary of the method: as §1

[13] = target: T1, TauC3 (C-terminally truncated tau …); assay: binding ELISA on TauC3 after 21 days at 37 C in PBS or mouse, human, cynomolgus serum, with non-incubated control
Experimental: Purified samples of the chimeric and humanized antibodies were incubated in mouse, human and cynomolgus serum for 21 days. The binding of the Tau01 HMKE, HMKM, HMKN, HMKO, HMKP candidate antibodies which had been incubated in the 3 different serums were compared with an antibody incubated in PBS and a 4° C. positive control sample by binding ELISA to TauC3 (FIG. 37). The Tau01 HMKE, HMKM, HMKN, HMKO, HMKP candidate antibodies retained their binding capability after being incubated in mouse, human and cynomolgus serum.

[14] = target: T1, TauC3 (C-terminally truncated tau …); assay: binding ELISA on coated TauC3, OD650; remark: listed apart in the source
Summary of the method: as §1

[15] = target: T1, TauC3 (C-terminally truncated tau …); assay: binding ELISA, TauC3 coated
Summary of the method: as §1

[16] = target: T2, full length Tau (2N4R, htau40); assay: binding ELISA on coated FL Tau, OD650
Summary of the method: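 Binding ELISA on coated full-length tau antigen, which was made and purified by Genscript. Antibody binding was read as absorbance at 650 nm.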

[17] = target: T1, TauC3 (C-terminally truncated tau …); assay: binding ELISA on coated TauC3, OD650; remark: listed apart in the source
Summary of the method: as §1

[18] = target: T1, TauC3 (C-terminally truncated tau …); assay: SPR (Biacore) kinetics, TauC3 amine-coupled on CM5, 1:1 global fit
Summary of the method: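 Each purified antibody was injected at a series of concentrations over a CM5 chip carrying amine-coupled purified antigen, with readout by Biacore surface plasmon resonance. A global fit gave Kd together with the association and dissociation rates. The fit model was 1:1.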

[19] = target: T1, TauC3 (C-terminally truncated tau …); assay: binding ELISA on coated TauC3, OD650; remark: listed apart in the source
Summary of the method: as §1

[20] = target: T2, full length Tau (2N4R, htau40); assay: Octet, antibody on Protein G sensor, FL Tau in solution
Experimental: The TauC3 and FL Tau antigens were generated and purified by Genscript and supplied at a concentration of 2.54 mg/ml or 0.24 mg/ml respectively. Binding of the chimeric antibody to TauC3 and FL Tau was assayed by binding ELISA. […] No non-specific binding to either antigen could be observed with an isotype confirming the binding observed is specific. Binding of the mouse and chimeric Tau01 antibodies to purified TauC3, was measured using Bio-Layer Interferometry (OctetRed96, ForteBio Section 8.12). The mouse and chimeric antibodies were assayed against a concentration series from 20 nM-0.31 nM TauC3 (FIGS. 8A and B). Both the mouse and chimeric antibodies were capable of binding to TauC3 in a concentration-dependent manner. The binding of the mouse and chimeric antibodies was also tested against FL Tau but low signals or no binding was observed (FIGS. 8C and D) confirming the binding of the antibodies is specific to TauC3.

T1 sequence (P10636 other isoform, or with tags, fused parts or gaps): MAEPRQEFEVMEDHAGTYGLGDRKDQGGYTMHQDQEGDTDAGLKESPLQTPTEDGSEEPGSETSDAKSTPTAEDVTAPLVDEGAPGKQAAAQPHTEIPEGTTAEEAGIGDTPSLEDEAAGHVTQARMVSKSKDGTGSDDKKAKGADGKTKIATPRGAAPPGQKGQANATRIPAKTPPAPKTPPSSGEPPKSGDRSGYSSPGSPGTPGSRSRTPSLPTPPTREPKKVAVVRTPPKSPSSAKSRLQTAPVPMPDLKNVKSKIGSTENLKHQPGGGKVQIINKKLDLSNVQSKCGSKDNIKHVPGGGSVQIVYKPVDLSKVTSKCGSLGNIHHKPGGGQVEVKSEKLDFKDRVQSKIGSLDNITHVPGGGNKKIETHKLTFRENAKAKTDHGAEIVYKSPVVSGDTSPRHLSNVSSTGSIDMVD
T2 sequence (P10636 other isoform, or with tags, fused parts or gaps limits assumed): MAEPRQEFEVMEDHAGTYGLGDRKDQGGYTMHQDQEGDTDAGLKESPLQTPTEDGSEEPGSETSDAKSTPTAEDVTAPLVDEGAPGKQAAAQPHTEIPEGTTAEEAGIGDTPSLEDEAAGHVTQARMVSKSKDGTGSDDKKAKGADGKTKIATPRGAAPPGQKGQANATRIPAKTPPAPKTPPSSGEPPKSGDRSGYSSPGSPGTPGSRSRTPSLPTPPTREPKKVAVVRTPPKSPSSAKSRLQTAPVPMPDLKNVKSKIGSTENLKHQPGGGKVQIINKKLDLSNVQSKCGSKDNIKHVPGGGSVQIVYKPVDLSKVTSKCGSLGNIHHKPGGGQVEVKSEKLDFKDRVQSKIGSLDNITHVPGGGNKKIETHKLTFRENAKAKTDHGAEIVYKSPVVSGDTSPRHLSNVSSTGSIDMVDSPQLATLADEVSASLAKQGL

- EC50 [1]: 0.628 nM
- koff [2]: 0.0114 s⁻¹
- Kd [3]: 1.2 nM
- Kd [4]: 1.24 nM
- koff [4]: 0.0249 s⁻¹
- kon [4]: 2.02e+07 M⁻¹ s⁻¹
- EC50 [5]: 0.502 nM
- EC50 [6]: 0.502 nM
- EC50 [7]: 0.73 nM
- Kslow [8]: 0.012
- EC50 [9]: 0.73 nM
- EC50 [10]: 0.502 nM
- binding result [11]: no binding
- EC50 [12]: 0.84 nM
B1: Tau01 HCKB HuG4K (antibody, V domains shown)
VH: LVQLVESGGGLVQPGGSLKLSCAASGFTFNTYAMNWVRQASGKGLEWVGRIRSKSNNYATYYAASVKGRFTISRDDSKSMAYLQMDSLKTEDTAVYYCVGGGDFWGQGTLVTVSS
VL: DIQMTQSPSSLSASVGDRVTITCRASQEISVYLSWFQQKPGKAIKRLIYGAFTLQSGVPSRFSGSRSGSEYTLTISSLQPEDFATYYCLQYVRYPWTFGGGTKVEIK
notes: human IgG4 kappa (HuG4K)

- EC50 [1]: 0.724 nM
- EC50 (read off the curve) [13]: ~0.5 nM
- koff [2]: 0.000414 s⁻¹
- EC50 [14]: 0.71 nM
- EC50 [15]: 0.7 nM and 0.65 nM
- binding result [16]: no binding (tested: about 30 nM)
- Kd [4]: 0.0574 nM
- EC50 [5]: 0.474 nM
- EC50 [17]: 0.298 nM and 0.313 nM
- EC50 [6]: 0.474 nM
- EC50 [7]: 0.438 nM and 0.483 nM and 0.538 nM and 0.73 nM
- Kd [18]: 0.057 nM
- koff [18]: 0.000741 s⁻¹
- kon [18]: 1.29e+07 M⁻¹ s⁻¹
- Kslow [8]: 0.000414
- EC50 [9]: 0.438 nM and 0.483 nM and 0.538 nM and 0.73 nM
- EC50 [10]: 0.474 nM
- EC50 [12]: 0.58 nM and 0.54 nM and 0.63 nM
- EC50 [19]: 0.724 nM
B2: MoTau01 HuG4K chimeric antibody (antibody, V domains shown)
VH: EVQVVESGGGLVQPKGSLKLSCAASGFTFNTYAMNWVRQAPGKGLEWVARIRSKSNNYATYYADSVKDRFTISRDDSQSMVYLQMNNLKTEDTAMYYCVGGGDFWGQGTALTVSS
VL: DIQMTQSPSSLSASLGERVSLTCRASQEISVYLSWFQQKPDGTIKRLIYGAFTLDSGVPKRFSGSRSGSDYSLTISSLESEDFADYYCLQYVRYPWTFGGGTKLEIK
notes: Mouse variable regions with human IgG4 / kappa constant regions (pHuG4, pHuK); also called chimeric Tau01

B3: MoTau01 mouse antibody (antibody, V domains shown)
VH: B2 VH
VL: B2 VL
notes: Mouse hybridoma antibody; also called mouse Tau01; murine Tau01
- binding result [20]: no binding (tested: not printed on the sheet)
